Measured values as given in patent publication US20090292112A1 (published 2009).

Target: T1, RG1 polypeptide (native RG1 protein, purified from transfected BHK cells) (human, UniProt Q9BUD6 27-331)
T1 construct: The Biacore assay used BHK-RG1; The Western blots used RG1 from COS, LNCaP and BHK cells and from lysates; also called nRG1; BHK-RG1
T1 chain: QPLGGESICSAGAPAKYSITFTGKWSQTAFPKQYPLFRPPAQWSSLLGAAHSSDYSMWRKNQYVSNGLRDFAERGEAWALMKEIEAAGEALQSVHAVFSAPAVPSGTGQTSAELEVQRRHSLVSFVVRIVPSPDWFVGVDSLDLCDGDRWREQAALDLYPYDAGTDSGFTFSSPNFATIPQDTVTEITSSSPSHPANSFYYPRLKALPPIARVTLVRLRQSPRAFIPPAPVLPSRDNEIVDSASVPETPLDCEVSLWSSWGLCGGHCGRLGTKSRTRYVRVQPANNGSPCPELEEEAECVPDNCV
Assay: BIAcore SPR; mab captured on anti-human IgG Fc, soluble BHK-RG1 12.5-400 nM, 1:1 Langmuir fit
Description: Kinetic constants (KD, kₐ and kd) of mab binding to native RG1 protein were determined by BIAcore using a capture format in which soluble, native RG1 protein was bound to immobilized mab on a sensor chip. ImmunoPure rabbit anti-human IgGFc (Pierce, 31142) was covalently immobilized to the Sensor Chip CM5 (Biacore, BR-1000-12) using standard amine coupling methods. 100 ug/ml antibody diluted in 10 mm acetate, pH 4.0 was used at 5 ul/min. HBS-EP (Biacore, BR-1001-88) was used as mobile phase. Unreacted sites were blocked with ethanolamine. Mabs were diluted to 200 nM with HBS and 50 ul was injected per cycle at 10 ul/min. Serial dilutions of BHK-RG1 (12.5-400 nM) were bound to the immobilized mab. Dissociation kinetics were measured immediately after the antigen injection was completed at 20 ul/min for 8 minutes. The surface was regenerated following each cycle using 25 ul of 10 mm glycine, pH 1.8 and then washed with HBS.
Data were fit to a 1:1 Langmuir model using the software provided by the instrument manufacturer (BIAevaluation 3.0), and kinetic constants were calculated.

Kd: 8.4 nM
koff: 0.00023 s⁻¹
kon: 29000 M⁻¹ s⁻¹
B1: human RG1 monoclonal antibody B (antibody, V domains shown)
VH: EVQLVQSGGGLVMPGGSLRLSCAGSGFTFSSYVMHWLRQAPGKGLEWVSVIGTGGVTHYADSVKGRFMISRDNAKNSLYLQMNSLRAEDTAMYYCARWGYYGSGSYENDAFDIWGQGTMVTVSS
VL: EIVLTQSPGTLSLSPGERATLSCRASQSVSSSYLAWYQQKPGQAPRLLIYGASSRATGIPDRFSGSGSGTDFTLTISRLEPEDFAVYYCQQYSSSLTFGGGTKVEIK
notes: Hybridomas were screened for human IgG,kappa, and the isotype of this clone is not explicitly stated; also called M ab B
